Reference: PMC10786891, “Massively parallel profiling of RNA-targeting CRISPR-Cas13d”
Residue numbers refer to the chain shown, from its start. Names and notes keep the numbering of the source.

T1: EsCas13d, nuclease-dead (Eubacterium siraeum, UniProt B0MS50, R295A;H300A;R849A;H854A)
T1 sequence: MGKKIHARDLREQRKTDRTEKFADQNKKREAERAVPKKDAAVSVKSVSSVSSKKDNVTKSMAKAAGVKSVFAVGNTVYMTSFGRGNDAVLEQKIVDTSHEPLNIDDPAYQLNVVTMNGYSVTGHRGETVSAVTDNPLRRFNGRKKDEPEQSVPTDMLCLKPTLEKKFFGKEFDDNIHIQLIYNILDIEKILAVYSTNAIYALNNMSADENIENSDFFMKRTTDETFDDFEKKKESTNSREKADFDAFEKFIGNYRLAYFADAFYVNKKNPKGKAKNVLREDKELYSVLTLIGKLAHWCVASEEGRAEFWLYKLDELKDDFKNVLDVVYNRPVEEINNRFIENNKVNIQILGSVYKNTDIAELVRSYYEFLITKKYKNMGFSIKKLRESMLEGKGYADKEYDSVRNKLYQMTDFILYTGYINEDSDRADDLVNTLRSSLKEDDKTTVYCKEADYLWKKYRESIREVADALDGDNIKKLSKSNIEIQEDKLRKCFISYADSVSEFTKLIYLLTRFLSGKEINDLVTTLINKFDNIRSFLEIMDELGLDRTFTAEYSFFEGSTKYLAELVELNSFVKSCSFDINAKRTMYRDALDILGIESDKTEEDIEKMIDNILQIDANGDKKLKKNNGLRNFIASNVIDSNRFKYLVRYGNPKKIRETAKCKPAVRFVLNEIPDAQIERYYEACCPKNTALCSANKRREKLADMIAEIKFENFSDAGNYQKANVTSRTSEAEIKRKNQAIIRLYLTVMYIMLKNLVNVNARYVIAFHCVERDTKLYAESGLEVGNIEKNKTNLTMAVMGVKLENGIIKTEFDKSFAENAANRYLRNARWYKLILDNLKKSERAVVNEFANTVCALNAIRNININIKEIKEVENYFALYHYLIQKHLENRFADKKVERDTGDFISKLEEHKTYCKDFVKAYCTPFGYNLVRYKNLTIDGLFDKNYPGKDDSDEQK

B1: target 1 C21U,C22U (mixed)
RNA 1: CACCCGUGCAAAAAUGCAGGGGUCUAAAACUGAGCGGAUAACCUCUCUAUGG
RNA 2: GGGAAUGGAUCCACAUCUACGAAUUCGUAUUAUAGAGAGGUUAUCCGCUCACCGAGAUCGGAAGAGCACACGU
B2: target 1 C2U,U3A (mixed)
RNA 1: B1 RNA 1
RNA 2: B1 RNA 2 with U30C, U31C, U49A, C50U
B3: target 1 G5U,U8A (mixed)
RNA 1: B1 RNA 1
RNA 2: B1 RNA 2 with U30C, U31C, U44A, G47U
B4: target 2 MT 5'PFS AUC 3'PFS CAU (mixed)
RNA 1: CACCCGUGCAAAAUUGCAGGGGUCUAAAACCUUCUCCAAAUUGUUUCAUCCU
RNA 2: GGGAAUGGAUCCACAUCUACGAAUUCAUCAGGAUGAAACAAUUUGGAGAAGCAUAGAUCGGAAGAGCACACGU
B5: target 2 MT 5'PFS AUC 3'PFS ACA (mixed)
RNA 1: B4 RNA 1
RNA 2: B4 RNA 2 with C52A, A53C, U54A
B6: target 2 MT 5'PFS UGA 3'PFS CUU (mixed)
RNA 1: B4 RNA 1
RNA 2: B4 RNA 2 with A27U, U28G, C29A, A53U
B7: target 2 MT 5'PFS CAU 3'PFS AAA (mixed)
RNA 1: B4 RNA 1
RNA 2: B4 RNA 2 with A27C, U28A, C29U, C52A, U54A
B8: target 2 MT 5'PFS CAC 3'PFS CCU (mixed)
RNA 1: B4 RNA 1
RNA 2: B4 RNA 2 with A27C, U28A, A53C
B9: target 2 MT 5'PFS GUA 3'PFS CCG (mixed)
RNA 1: B4 RNA 1
RNA 2: B4 RNA 2 with A27G, C29A, A53C, U54G
B10: target 2 MT 5'PFS CGA 3'PFS CAC (mixed)
RNA 1: B4 RNA 1
RNA 2: B4 RNA 2 with A27C, U28G, C29A, U54C
B11: target 2 MT 5'PFS CAU 3'PFS CAU (mixed)
RNA 1: B4 RNA 1
RNA 2: B4 RNA 2 with A27C, U28A, C29U
B12: target 2 MT 5'PFS GAC 3'PFS UGA (mixed)
RNA 1: B4 RNA 1
RNA 2: B4 RNA 2 with A27G, U28A, C52U, A53G, U54A
B13: target 2 MT 5'PFS AGG 3'PFS AGG (mixed)
RNA 1: B4 RNA 1
RNA 2: B4 RNA 2 with U28G, C29G, C52A, A53G, U54G
B14: target 2 MT 5'PFS UAU 3'PFS AAC (mixed)
RNA 1: B4 RNA 1
RNA 2: B4 RNA 2 with A27U, U28A, C29U, C52A, U54C
B15: target 2 MT 5'PFS AUC 3'PFS ACU (mixed)
RNA 1: B4 RNA 1
RNA 2: B4 RNA 2 with C52A, A53C
B16: target 2 MT 5'PFS UGG 3'PFS UCA (mixed)
RNA 1: B4 RNA 1
RNA 2: B4 RNA 2 with A27U, U28G, C29G, C52U, A53C, U54A
B17: target 2 MT 5'PFS GAC 3'PFS UGC (mixed)
RNA 1: B4 RNA 1
RNA 2: B4 RNA 2 with A27G, U28A, C52U, A53G, U54C
B18: target 2 MT 5'PFS AUG 3'PFS UAC (mixed)
RNA 1: B4 RNA 1
RNA 2: B4 RNA 2 with C29G, C52U, U54C
B19: target 2 MT 5'PFS GAC 3'PFS UGU (mixed)
RNA 1: B4 RNA 1
RNA 2: B4 RNA 2 with A27G, U28A, C52U, A53G
B20: target 2 MT 5'PFS AUG 3'PFS UAA (mixed)
RNA 1: B4 RNA 1
RNA 2: B4 RNA 2 with C29G, C52U, U54A
B21: target 2 MT 5'PFS AUG 3'PFS UAU (mixed)
RNA 1: B4 RNA 1
RNA 2: B4 RNA 2 with C29G, C52U
B22: target 2 MT 5'PFS UUC 3'PFS CUC (mixed)
RNA 1: B4 RNA 1
RNA 2: B4 RNA 2 with A27U, A53U, U54C
B23: target 2 MT 5'PFS AUU 3'PFS AAC (mixed)
RNA 1: B4 RNA 1
RNA 2: B4 RNA 2 with C29U, C52A, U54C
B24: target 2 MT 5'PFS GCA 3'PFS AGA (mixed)
RNA 1: B4 RNA 1
RNA 2: B4 RNA 2 with A27G, U28C, C29A, C52A, A53G, U54A
B25: target 2 MT 5'PFS CAU 3'PFS AAC (mixed)
RNA 1: B4 RNA 1
RNA 2: B4 RNA 2 with A27C, U28A, C29U, C52A, U54C
B26: target 2 MT 5'PFS UGG 3'PFS UCU (mixed)
RNA 1: B4 RNA 1
RNA 2: B4 RNA 2 with A27U, U28G, C29G, C52U, A53C
B27: target 2 MT 5'PFS CGA 3'PFS CAA (mixed)
RNA 1: B4 RNA 1
RNA 2: B4 RNA 2 with A27C, U28G, C29A, U54A
B28: target 2 MT 5'PFS UUG 3'PFS UCU (mixed)
RNA 1: B4 RNA 1
RNA 2: B4 RNA 2 with A27U, C29G, C52U, A53C
B29: target 2 MT 5'PFS AGG 3'PFS CUU (mixed)
RNA 1: B4 RNA 1
RNA 2: B4 RNA 2 with U28G, C29G, A53U
B30: target 2 MT 5'PFS CGG 3'PFS UUU (mixed)
RNA 1: B4 RNA 1
RNA 2: B4 RNA 2 with A27C, U28G, C29G, C52U, A53U
B31: target 2 MT 5'PFS CAU 3'PFS AAU (mixed)
RNA 1: B4 RNA 1
RNA 2: B4 RNA 2 with A27C, U28A, C29U, C52A
B32: target 2 MT 5'PFS CUA 3'PFS ACC (mixed)
RNA 1: B4 RNA 1
RNA 2: B4 RNA 2 with A27C, C29A, C52A, A53C, U54C
B33: target 2 MT 5'PFS UAU 3'PFS AAA (mixed)
RNA 1: B4 RNA 1
RNA 2: B4 RNA 2 with A27U, U28A, C29U, C52A, U54A
B34: target 2 MT 5'PFS GGG 3'PFS UUA (mixed)
RNA 1: B4 RNA 1
RNA 2: B4 RNA 2 with A27G, U28G, C29G, C52U, A53U, U54A
B35: target 2 MT 5'PFS UAU 3'PFS AAG (mixed)
RNA 1: B4 RNA 1
RNA 2: B4 RNA 2 with A27U, U28A, C29U, C52A, U54G
B36: target 2 MT 5'PFS GGG 3'PFS UUC (mixed)
RNA 1: B4 RNA 1
RNA 2: B4 RNA 2 with A27G, U28G, C29G, C52U, A53U, U54C
B37: target 2 MT 5'PFS CAU 3'PFS AAG (mixed)
RNA 1: B4 RNA 1
RNA 2: B4 RNA 2 with A27C, U28A, C29U, C52A, U54G
B38: target 2 MT 5'PFS UUG 3'PFS UCA (mixed)
RNA 1: B4 RNA 1
RNA 2: B4 RNA 2 with A27U, C29G, C52U, A53C, U54A

Target: T1, EsCas13d, nuclease-dead
Assay: crRNA (strand 1, pre-loaded); Mg2+; 40 mM Tris-HCl pH 7.5, 150 mM NaCl, 6 mM MgCl2, 1 mM DTT, 0.1% Tween-20, 0.2 mg/ml BSA; 25 C; 10 min per concentration, then washed
Conditions: tags: His6-TwinStrep-SUMO cleaved; N-terminal SNAP kept (SNAP-Surface 488); label: 3' end held by stalled T7 RNA polymerase

Binder	Kd [nM]
B1	29 ± 4
B2	16.1 ± 1.9
B3	~70
B4	78 ± 27
B5	~70
B6	14.1 ± 3
B7	4.2 ± 0.7
B8	~33
B9	9.6 ± 0.6
B10	9 ± 4
B11	4.9 ± 0.9
B12	12.9 ± 2
B13	5.2 ± 0.6
B14	24 ± 2.8
B15	~41
B16	8.5 ± 0.9
B17	14.4 ± 2.7
B18	12.6 ± 2.3
B19	23 ± 4

Binder	Kd [nM]
B20	7.9 ± 1.3
B21	15 ± 4
B22	~32
B23	7.3 ± 0.9
B24	8.2 ± 1.7
B25	4.2 ± 0.6
B26	41 ± 11
B27	6.5 ± 2
B28	27.6 ± 3.4
B29	7.3 ± 0.9
B30	15 ± 2.7
B31	4.4 ± 0.7
B32	1.8 ± 0.4
B33	18 ± 3.5
B34	14.9 ± 1.7
B35	20.9 ± 2.2
B36	42 ± 15
B37	4.9 ± 0.7
B38	~70
